Reference: patent publication US20170022281A1 (AbbVie / Abbott, published 2017)

T1: human PRLR (Biacore antigen) (human, UniProt P16471 25-234, limits assumed)
T1 construct: The construct injected over captured antibody is not described (a soluble form is likely); also called huPRLR
T1 sequence: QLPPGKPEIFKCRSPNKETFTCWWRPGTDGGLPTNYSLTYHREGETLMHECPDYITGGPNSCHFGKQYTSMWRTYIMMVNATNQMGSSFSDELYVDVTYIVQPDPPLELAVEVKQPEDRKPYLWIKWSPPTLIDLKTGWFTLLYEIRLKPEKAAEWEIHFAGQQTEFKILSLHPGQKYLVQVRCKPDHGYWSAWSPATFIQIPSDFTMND

T2: human PRLR on cells (human, UniProt P16471 25-622)
T2 sequence: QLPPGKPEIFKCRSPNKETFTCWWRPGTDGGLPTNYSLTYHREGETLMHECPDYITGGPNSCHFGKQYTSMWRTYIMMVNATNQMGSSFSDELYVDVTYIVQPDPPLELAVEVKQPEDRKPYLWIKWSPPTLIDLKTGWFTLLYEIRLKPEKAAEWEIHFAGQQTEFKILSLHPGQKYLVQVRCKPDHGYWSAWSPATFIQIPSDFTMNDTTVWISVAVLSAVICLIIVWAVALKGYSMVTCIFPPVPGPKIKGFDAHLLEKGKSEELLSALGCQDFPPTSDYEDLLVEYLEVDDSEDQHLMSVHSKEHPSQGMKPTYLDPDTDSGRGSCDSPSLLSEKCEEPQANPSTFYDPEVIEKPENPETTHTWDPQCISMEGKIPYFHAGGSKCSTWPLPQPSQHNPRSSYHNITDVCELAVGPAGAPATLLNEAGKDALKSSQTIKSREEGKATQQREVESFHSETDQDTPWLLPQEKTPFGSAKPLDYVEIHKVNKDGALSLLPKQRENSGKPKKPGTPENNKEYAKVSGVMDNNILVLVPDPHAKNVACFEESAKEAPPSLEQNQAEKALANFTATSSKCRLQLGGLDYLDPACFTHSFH

T3: mouse PRLR on Baf3-mPRLR cells (mouse, UniProt Q08501 20-608)
T3 sequence (looked up): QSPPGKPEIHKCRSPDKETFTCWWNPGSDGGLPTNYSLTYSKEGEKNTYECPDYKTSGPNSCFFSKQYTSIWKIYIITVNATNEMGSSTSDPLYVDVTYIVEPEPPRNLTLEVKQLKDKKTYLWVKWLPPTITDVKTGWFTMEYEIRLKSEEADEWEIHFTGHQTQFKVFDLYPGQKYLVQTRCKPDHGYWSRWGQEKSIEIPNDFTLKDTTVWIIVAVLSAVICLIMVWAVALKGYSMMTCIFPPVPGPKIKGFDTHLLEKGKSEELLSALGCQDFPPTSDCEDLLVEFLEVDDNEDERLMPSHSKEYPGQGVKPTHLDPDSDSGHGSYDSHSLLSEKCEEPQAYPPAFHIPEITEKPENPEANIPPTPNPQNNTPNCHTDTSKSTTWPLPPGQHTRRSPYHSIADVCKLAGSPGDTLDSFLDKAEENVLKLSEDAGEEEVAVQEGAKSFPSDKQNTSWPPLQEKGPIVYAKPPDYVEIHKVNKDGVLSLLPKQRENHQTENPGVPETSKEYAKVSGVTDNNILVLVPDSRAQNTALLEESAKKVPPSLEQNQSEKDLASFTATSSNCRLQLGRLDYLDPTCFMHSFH


Tests used:
[1] = biological target: T1, human PRLR (Biacore antigen); assay: SPR simultaneous binding; PRLR held by surface mAb Ab19
Procedure: (§1) Running buffer was HBS-EP+ (10 mM Hepes, pH7.4, 150 mM NaCl, 3 mM EDTA, 0.05% surfactant). Assay was performed at 12° C. using Biacore T200 and CM5 sensor chips with anti-human IgG (Pierce) amine-coupled in all 4 flow cells to ˜2000 RU.
(§2) Separate test mAbs were captured in flowcells 2, 3 & 4 (flowcell 1 was reference, no test mAb). All 4 flowcells were then blocked by injection with isotype control mAb at 50 ug/ml. All 4 flowcells were then injected with antigen or buffer only (buffer only is for double referencing, done for each mAb pair individually). All 4 flowcells were then injected with 2nd test mAb at 10 ug/ml. All 4 flowcells were then regenerated with glycine, pH1.5.

[2] = biological target: T1, human PRLR (Biacore antigen); assay: SPR simultaneous binding; PRLR held by surface mAb Ab21
Procedure: as §1, §2

[3] = biological target: T1, human PRLR (Biacore antigen); assay: SPR simultaneous binding; PRLR held by surface mAb Ab39
Procedure: as §1, §2

[4] = biological target: T1, human PRLR (Biacore antigen); assay: SPR simultaneous binding; PRLR held by surface mAb chAb5
Procedure: as §1, §2

[5] = biological target: T2, human PRLR on cells; assay: cell-based or functional assay
[6] = biological target: cyno PRLR on Baf3-cyPRLR cells (cyno); assay: cell-based or functional assay
[7] = biological target: T3, mouse PRLR on Baf3-mPRLR cells; assay: cell-based or functional assay
[8] = biological target: T1, human PRLR (Biacore antigen); assay: SPR simultaneous binding; PRLR held by surface mAb Ab40
Procedure: as §1, §2

[9] = biological target: T1, human PRLR (Biacore antigen); assay: SPR simultaneous binding; PRLR held by surface mAb chAb8
Procedure: as §1, §2

[10] = biological target: T1, human PRLR (Biacore antigen); assay: SPR simultaneous binding; PRLR held by surface mAb LFA102
Procedure: as §1, §2

[11] = biological target: T1, human PRLR (Biacore antigen); assay: SPR simultaneous binding; PRLR held by surface mAb chAb6
Procedure: as §1, §2

[12] = biological target: T1, human PRLR (Biacore antigen); assay: SPR simultaneous binding; PRLR held by surface mAb chAb7
Procedure: as §1, §2

| Binder | solution mAb binding, % of PRLR binding [1] | solution mAb binding, % of PRLR binding [2] | solution mAb binding, % of PRLR binding [3] | solution mAb binding, % of PRLR binding [4] | Baf3-hPRLR proliferation IC50 [5] | T47D pPRLR ELISA IC50 [5] | Baf3-cyPRLR proliferation IC50 [6] | Baf3-mPRLR proliferation IC50 [7] | solution mAb binding, % of PRLR binding [8] | solution mAb binding, % of PRLR binding [9] | solution mAb binding, % of PRLR binding [10] | solution mAb binding, % of PRLR binding [11] | solution mAb binding, % of PRLR binding [12] |
| --- | --- | --- | --- | --- | --- | --- | --- | --- | --- | --- | --- | --- | --- |
| LFA102 (antibody, human IgG1, kappa, V domains shown, humanized IgG1 kappa comparator (WO 2008022295)) VH: EVQLVESGGGLVQPGGSLRLSCAVSGFTFSSYGMSWVRQAPGKRLEWVATVSSGGTYTYYPDSVKGRFTISRDNSKNTLYLQMNSLRAEDTAMYYCARHRGNYYATYYYAMDYWGQGTLVTVSS VL: DIVLTQSPDSLAVSLGERATINCKASKSVSTSGYTYMHWYQQKPGQPPKLLIYLASNRESGVPDRFSGSGSGTDFTLTISPVQAEDVATYYCQHSGELPPSFGQGTKLEIKR | 19% | 21% | 36% | 32% | 0.56 mg/L | 0.069 µg/mL | > 30 mg/L | > 30 mg/L | 40% | 1% | -2% | 26% | 39% |
| Ab48 (antibody, human IgG1, kappa, V domains shown, humanized from Ab8; G1; also called Ab3 HC.1a and Ab3 LC.1a) VH: EVQLVQSGAEVKKPGASVKVSCKASGYTFTDYNIHWVRQAPGQGLEWIGYIYPNNDGTGYNQKFKSRATLTVDNSTSTAYMELRSLRSDDTAVYYCARGDGNYVGDMDYWGQGTTVTVSS VL: DIQMTQSPSSLSASVGDRVTITCRASENIYSYLAWYQQKPGKPPKLLVYNAKTLAEGVPSRFSGSGSGTDFTLTISSLQPEDFATYYCQHHYATPFTFGQGTKLEIKR | -1% | -1% | -2% | 0% | 0.4 mg/L | – | 4.87 mg/L | > 30 mg/L | -2% | -1% | -2% | -2% | 0% |
| Ab19 (antibody, human IgG1, kappa, V domains shown, humanized from Ab6; G1; also called Ab1 HC.1a and Ab1 LC.1a) VH: EVQLVQSGAEVKKPGSSVKVSCKASGYTFTTYWMHWVRQAPGQGLEWIGEIDPSDSYSNYNQKFKDRATLTVDKSTSTAYMELSSLRSEDTAVYYCARNGGLGPAWFSYWGQGTLVTVSS VL: DIQMTQSPSSVSASVGDRVTITCKASQYVGTAVAWYQQKPGKSPKLLIYSASNRYTGVPSRFSDSGSGTDFTLTISSLQPEDFATYFCQQYSSYPWTFGGGTKVEIKR | -1% | -1% | -2% | 0% | 0.12 mg/L | – | 0.13 mg/L | > 30 mg/L | -2% | 0% | 122% | 0% | 0% |
| Ab21 (antibody, human IgG1, kappa, V domains shown, humanized from Ab6; G1; also called Ab1 HC.1a and Ab1 LC.2a) VH: EVQLVQSGAEVKKPGSSVKVSCKASGYTFTTYWMHWVRQAPGQGLEWIGEIDPSDSYSNYNQKFKDRATLTVDKSTSTAYMELSSLRSEDTAVYYCARNGGLGPAWFSYWGQGTLVTVSS VL: EIVMTQSPATLSVSPGERATLSCKASQYVGTAVAWYQQKPGQSPRLLIYSASNRYTGVPARFSDSGSGTEFTLTISSLQSEDFAVYFCQQYSSYPWTFGGGTKVEIKR | -1% | -1% | -2% | -1% | 0.15 mg/L | – | 0.15 mg/L | > 30 mg/L | -2% | 0% | 104% | -1% | 0% |
| chAb5 (antibody, human IgG1, kappa, V domains shown, chimeric, murine variable and human G1/kappa constant regions) VH: QVQLQQPGAELVRPGTSVKLSCKASGYTFTSFWMHWVKQRPGQGLEWIGVIDPSDTYTNYNQKFKGKATLTVDTSSSTAYMQLSSLTSEDSAVYYCARGDYSNWFTYWGQGTLVTVSA VL: DVVMTQTPLSLPVSLGDQASISCRSSQRLVHSNGNTYLHWYLQKPGQSPKLLIYKVSNRFSGVPDRFSGSGSGTDFTLKISRVEAEDLGVYFCSQSTHVPWTFGGGTKLEIKT | 0% | -1% | -2% | 0% | 0.15 mg/L | – | 0.42 mg/L | 2.51 mg/L | -2% | 7% | 102% | -1% | 0% |
| chAb7 (antibody, human IgG1, kappa, V domains shown, chimeric, murine variable and human G1/kappa constant regions) VH: QVQLQQPGAELVMPGTSVKLSCKASGYTFTSYWIHWVKQRPGQGLEWIGEIDPSDSYTNYNQKFKGKATLTVDRSSSTAYMQLSSLTSEDSAVYYCGRSFFTNWFAYWGQGTLVTVSA VL: DVVMTQTPLSLPVSLGDQASISCRSSQSLVHSNGNTYLHWYLQKPGQSPKLLIYKVSNRFSGVPDRFSGSGSGTDFTLKINRVEAEDLGVYFCSQSTHVPFTFGSGTKLEIKT | -1% | -1% | -2% | -1% | 1.2 mg/L | – | 1.9 mg/L | 3.6 mg/L | -2% | 2% | 48% | -1% | 0% |
